In US20260022128A1 (AbbVie / Abbott, published 2026):

Target: c-Met (human, UniProt P08581 25-1390)
Assay: cell-based or functional assay

Chain of c-Met (P08581 25-1390): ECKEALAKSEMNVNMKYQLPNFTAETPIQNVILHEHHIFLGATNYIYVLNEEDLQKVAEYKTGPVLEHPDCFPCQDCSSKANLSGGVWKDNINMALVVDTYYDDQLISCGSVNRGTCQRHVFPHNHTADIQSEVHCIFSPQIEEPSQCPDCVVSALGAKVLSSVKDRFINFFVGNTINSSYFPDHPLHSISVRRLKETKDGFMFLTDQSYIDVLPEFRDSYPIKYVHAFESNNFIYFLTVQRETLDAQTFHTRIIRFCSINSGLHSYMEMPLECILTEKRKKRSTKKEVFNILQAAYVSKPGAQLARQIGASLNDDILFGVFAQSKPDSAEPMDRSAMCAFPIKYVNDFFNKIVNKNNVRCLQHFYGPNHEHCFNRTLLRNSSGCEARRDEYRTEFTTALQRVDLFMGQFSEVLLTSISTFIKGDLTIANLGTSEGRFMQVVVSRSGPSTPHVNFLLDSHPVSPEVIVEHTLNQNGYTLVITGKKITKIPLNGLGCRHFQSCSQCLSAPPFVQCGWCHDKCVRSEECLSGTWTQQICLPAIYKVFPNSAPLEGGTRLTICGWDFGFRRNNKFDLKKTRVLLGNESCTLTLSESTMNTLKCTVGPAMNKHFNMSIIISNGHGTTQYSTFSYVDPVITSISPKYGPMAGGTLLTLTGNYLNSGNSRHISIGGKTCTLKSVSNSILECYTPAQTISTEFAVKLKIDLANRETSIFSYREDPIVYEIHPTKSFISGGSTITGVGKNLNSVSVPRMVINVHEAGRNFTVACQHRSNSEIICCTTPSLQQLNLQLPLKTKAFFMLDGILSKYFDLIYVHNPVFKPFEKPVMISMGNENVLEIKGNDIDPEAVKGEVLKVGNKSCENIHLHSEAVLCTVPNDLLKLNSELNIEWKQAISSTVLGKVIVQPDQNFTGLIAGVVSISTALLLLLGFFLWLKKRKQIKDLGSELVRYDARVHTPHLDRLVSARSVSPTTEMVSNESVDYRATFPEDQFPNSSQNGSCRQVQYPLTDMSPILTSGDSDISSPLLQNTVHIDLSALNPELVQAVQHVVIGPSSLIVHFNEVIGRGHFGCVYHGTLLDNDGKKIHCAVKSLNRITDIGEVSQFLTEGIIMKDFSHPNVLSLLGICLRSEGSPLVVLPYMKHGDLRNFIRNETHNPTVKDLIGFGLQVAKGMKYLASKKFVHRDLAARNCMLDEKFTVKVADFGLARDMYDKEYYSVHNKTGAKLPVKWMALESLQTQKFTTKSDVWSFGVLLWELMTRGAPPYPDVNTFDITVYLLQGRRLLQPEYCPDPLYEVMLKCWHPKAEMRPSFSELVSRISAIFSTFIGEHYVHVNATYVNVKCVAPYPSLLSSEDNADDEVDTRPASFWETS

Binder	Cytotoxicity IC50 (nM), Calu-3 cells	Cytotoxicity IC50 (nM), HCC827 cells	Cytotoxicity IC50 (nM), HEK-293 cells (not different from control)	Cytotoxicity IC50 (nM), MIA PaCa-2 cells (not different from control)	Cytotoxicity IC50 (nM), NCI-H441 cells	Cytotoxicity IC50 (nM), NCI-H441 cells (second row so labelled)	Cytotoxicity IC50 (nM), NCI-H1573 cells (estimated due to curve-fitting issues)	Cytotoxicity IC50 (nM), SNU-5 cells	Cytotoxicity IC50 (nM), Hs 746T cells	Cytotoxicity IC50 (nM), NCI-H820 cells	Cytotoxicity IC50 (nM), NCI-H1573 cells
ADC-1 (AbA conjugated to linker drug LD1, structural formula VIII) (antibody, IgG1, V domains shown, TOP1i linker drug LD1 (structural formula V) linked via sulfhydryl groups of reduced cysteine residues; positions not given) VH: QVQLVQSGAEVKKPGASVKVSCKASGYIFTAYTMHWVRQAPGQGLEWMGWIKPNNGLANYAQKFQGRVTMTRDTSISTAYMELSRLRSDDTAVYYCARSEITTEFDYWGQGTLVTVSS VL: DIVMTQSPDSLAVSLGERATINCKSSESVDSYANSFLHWYQQKPGQPPKLLIYRASTRESGVPDRFSGSGSGTDFTLTISSLQAEDVAVYYCQQSKEDPLTFGGGTKVEIKR	20 nM	0.85 nM	> 60 nM	> 60 nM	0.25 nM	0.3 nM	~1 nM	0.19 nM	–	–	–
ADC-3 (AbA conjugated to linker drug LD3, structural formula X) (antibody, IgG1, V domains shown, TOP1i linker drug LD3 (structural formula VII, maleimide, hydrolyzed) linked via sulfhydryl groups of reduced cysteine residues; positions not given) VH: QVQLVQSGAEVKKPGASVKVSCKASGYIFTAYTMHWVRQAPGQGLEWMGWIKPNNGLANYAQKFQGRVTMTRDTSISTAYMELSRLRSDDTAVYYCARSEITTEFDYWGQGTLVTVSS VL: DIVMTQSPDSLAVSLGERATINCKSSESVDSYANSFLHWYQQKPGQPPKLLIYRASTRESGVPDRFSGSGSGTDFTLTISSLQAEDVAVYYCQQSKEDPLTFGGGTKVEIKR	–	0.5 nM	–	> 60 nM	–	–	–	–	0.05 nM	0.06 nM	1.1 nM
ADC-2 (AbA conjugated to linker drug LD2, structural formula IX) (antibody, IgG1, V domains shown, TOP1i linker drug LD2 (structural formula VI, maleimide, hydrolyzed) linked via sulfhydryl groups of reduced cysteine residues; positions not given) VH: QVQLVQSGAEVKKPGASVKVSCKASGYIFTAYTMHWVRQAPGQGLEWMGWIKPNNGLANYAQKFQGRVTMTRDTSISTAYMELSRLRSDDTAVYYCARSEITTEFDYWGQGTLVTVSS VL: DIVMTQSPDSLAVSLGERATINCKSSESVDSYANSFLHWYQQKPGQPPKLLIYRASTRESGVPDRFSGSGSGTDFTLTISSLQAEDVAVYYCQQSKEDPLTFGGGTKVEIKR	–	0.9 nM	–	> 60 nM	–	0.25 nM	~1 nM	–	–	0.16 nM	–
